# Patent US20190359666A1 (ACADEMIA SINICA, published 2019)
# T1: nrgbx (UniProt Q02297-6 2-246, limits assumed)
# T1 sequence (looked up): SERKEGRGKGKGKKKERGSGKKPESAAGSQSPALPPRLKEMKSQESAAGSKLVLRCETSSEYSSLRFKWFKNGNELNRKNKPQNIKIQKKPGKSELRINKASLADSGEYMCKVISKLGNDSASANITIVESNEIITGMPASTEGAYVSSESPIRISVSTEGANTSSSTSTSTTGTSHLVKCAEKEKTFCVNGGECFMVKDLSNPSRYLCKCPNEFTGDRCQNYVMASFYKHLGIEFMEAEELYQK
# B1: IGFBP3-Fc-3 (Fc fusion)
# chain: GASSAGLGPVVRCEPCDARALAQCAPPPAVCAELVREPGCGCCLTCALSEGQPCGIYTERCGSGLRCQPSPDEARPLQALLDGRGLCVNASAVSRPAPPAPGNASESEEDRSAGSVESPSVSSTHRVSDPKFHPKGHAKVDYESQSTDTQNFSSESKRETEYGPCRREMEDTLNHLKFLNVLSPRGVHIPNCDKKGFYKKKQCRPSKGRKRGFCWCVDKYGQPLPGYTTKGKEDVHCYSMQSKVECPPCPAPPVAGPSVFLFPPKPKDQLMISRTPEVTCVVVDVSHEDPEVKFNWYVDGVEVHNAKTKPREEQYNSTYRVVSVLTVLHQDWLNGKEYKCKVSNKGLPSSIEKTISKAKGQPREPQVYTLPPSREEMTKNQVSLTCLVKGFYPSDIAVEWESNGQPENNYKTTPPVLDSDGSFFLYSKLTVDKSRWQQGNVFSCSVMHEGLHNHYTQKSLSLSPGK
# notes: IGFBP3 with IGFBP3 linker deletion 3, fused to Fc; dimeric; also called 3(del3)3; 3(del3)3Fc
# B2: 4141 (other)
# chain: GASSAGLGPVVRCEPCDARALAQCAPPPAVCAELVREPGCGCCLTCALSEGQPCGIYTERCGSGLRCQPSPDEARPLQALLDGRGLCVNASAVSKGHAKDSQRYKVDYESQSTDTQNFSSESKRETEYVECPPCPAPPVAGPSVFLFPPKPKDQLMISRTPEVTCVVVDVSHEDPEVKFNWYVDGVEVHNAKTKPREEQYNSTYRVVSVLTVLHQDWLNGKEYKCKVSNKGLPSSIEKTISKAKGQPREPQVYTLPPSREEMTKNQVSLTCLVKGFYPSDIAVEWESNGQPENNYKTTPPVLDSDGSFFLYSKLTVDKSRWQQGNVFSCSVMHEGLHNHYTQKSLSLSPGK
# notes: Fragment of BP3; also called N-terminus plus partial linker
# B3: VEGF-B (ligand, UniProt P49765-2 22-188, looked up)
# chain: PVSQPDAPGHQRKVVSWIDVYTRATCQPREVVVPLTVELMGTVAKQLVPSCVTVQRCGGCCPDDGLECVPTGQHQVRMQILMIRYPSSQLGEMSLEEHSQCECRPKKKDSAVKPDSPRPLCPRCTQHHQRPDPRTCRCRCRRRSFLRCQGRGLELNPDTCRCRKLRR
# B4: Rantes (ligand, UniProt P13501 24-91, looked up)
# chain: SPYSSDTTPCCFAYIARPLPRAHIKEYFYTSGKCSNPAVVFVTRKNRQVCANPEKKWVREYINSLEMS
# notes: The excerpts show no construct or source
# B5: IGFBP3-GS16-VEGF-Fc (Fc fusion)
# chain: GASSAGLGPVVRCEPCDARALAQCAPPPAVCAELVREPGCGCCLTCALSEGQPCGIYTERCGSGLRCQPSPDEARPLQALLDGRGLCVNASAVSKGHAKDSQRYKVDYESQSTDTQNFSSESKRETEYGPCRREMEDTLNHLKFLNVLSPRGVHIPNCDKKGFYKKKQCRPSKGRKRGFCWCVDKYGQPLPGYTTKGKEDVHCYSMQSKGGGGSGGGGSGGGGSGIYIFISDTGRPFVEMYSEIPEIIHMTEGRELVIPCRVTSPNITVTLKKFPLDTLIPDGKRIIWDSRKGFIISNATYKEIGLLTCEATVNGHLYKTNYLTHRQGYRIYDVVLSPSHGIELSVGEKLVLNCTARTELNVGIDFNWEYPSSKHQHKKLVNRDLKTQSGSEMKKFLSTLTIDGVTRSDQGLYTCAASSGLMTKKNSTFVRVHEKVECPPCPAPPVAGPSVFLFPPKPKDQLMISRTPEVTCVVVDVSHEDPEVKFNWYVDGVEVHNAKTKPREEQYNSTYRVVSVLTVLHQDWLNGKEYKCKVSNKGLPSSIEKTISKAKGQPREPQVYTLPPSREEMTKNQVSLTCLVKGFYPSDIAVEWESNGQPENNYKTTPPVLDSDGSFFLYSKLTVDKSRWQQGNVFSCSVMHEGLHNHYTQKSLSLSPGK
# notes: IGFBP3 with linker deletion 1 - GS 16 linker - v1v2 - Fc; dimeric; also called Chimera B; 3-t3-3-GS16-V1V2
# B6: IGFBP3-Fc-2 (Fc fusion)
# chain: GASSAGLGPVVRCEPCDARALAQCAPPPAVCAELVREPGCGCCLTCALSEGQPCGIYTERCGSGLRCQPSPDEARPLQALLDGRGLCVNASAVSRPAPPAPGNASESEEDRSAGSVESPSVSSTHRVSDPKFHPKGHAKDSQRYKVDYESQSTDTQNFSSESKRETEYGPCRREMEDTLNHLKFLNVLSPRGVHIPNCDKKGFYKKKQCRPSKGRKRGFCWCVDKYGQPLPGYTTKGKEDVHCYSMQSKVECPPCPAPPVAGPSVFLFPPKPKDQLMISRTPEVTCVVVDVSHEDPEVKFNWYVDGVEVHNAKTKPREEQYNSTYRVVSVLTVLHQDWLNGKEYKCKVSNKGLPSSIEKTISKAKGQPREPQVYTLPPSREEMTKNQVSLTCLVKGFYPSDIAVEWESNGQPENNYKTTPPVLDSDGSFFLYSKLTVDKSRWQQGNVFSCSVMHEGLHNHYTQKSLSLSPGK
# notes: IGFBP3 with IGFBP3 linker deletion 2, fused to Fc; dimeric; also called 3(del2)3; 3(del2)3Fc
# B7: 4142 (other)
# chain: GASSAGLGPVVRCEPCDARALAQCAPPPAVCAELVREPGCGCCLTCALSEGQPCGIYTERCGSGLRCQPSPDEARPLQALLDGRGLCVNASAVSVECPPCPAPPVAGPSVFLFPPKPKDQLMISRTPEVTCVVVDVSHEDPEVKFNWYVDGVEVHNAKTKPREEQYNSTYRVVSVLTVLHQDWLNGKEYKCKVSNKGLPSSIEKTISKAKGQPREPQVYTLPPSREEMTKNQVSLTCLVKGFYPSDIAVEWESNGQPENNYKTTPPVLDSDGSFFLYSKLTVDKSRWQQGNVFSCSVMHEGLHNHYTQKSLSLSPGK
# notes: Fragment of BP3; also called ligand 4142; N-terminus only
# B8: 4382 (other)
# chain: GASSAVNASAVSRLRAYLLPAPPAPGNASESEEDRSAGSVESPSVSSTHRVSDPKFHPLHSKIIIIKKGHAKDSQRYKVDYESQSTDTQNFSSESKREVECPPCPAPPVAGPSVFLFPPKPKDQLMISRTPEVTCVVVDVSHEDPEVKFNWYVDGVEVHNAKTKPREEQYNSTYRVVSVLTVLHQDWLNGKEYKCKVSNKGLPSSIEKTISKAKGQPREPQVYTLPPSREEMTKNQVSLTCLVKGFYPSDIAVEWESNGQPENNYKTTPPVLDSDGSFFLYSKLTVDKSRWQQGNVFSCSVMHEGLHNHYTQKSLSLSPGK
# notes: Fragment of BP3; also called ligand 4382; linker region alone
# Experiments:
# bFGF [1] = target: T2, bFGF (UniProt P09038 143-288, limits assumed); experiment: Biacore SPR, immobilised bFGF; experiment 4-79
# T2 construct: also called basic fibroblast growth factor
# Protocol: (§1) Biacore binding was performed at David Myszka's laboratory at the University of Utah or at the Genomic Research Center at Academia Sinica. Surfaces of binding protein chimera were made via chemical immobilization on a CM4 chip using standard amine coupling chemistry. […] Excess surface carboxyl activated sites on all four flow cells was blocked using the doubly positively charged species ethylenediamine. Binding experiments (but not immobilizations) in HBS-P (10 mM HEPES pH 7.4, 150 mM NaCl, 0.05% P20), The HBS-P was supplemented with BSA at 0.2 mg/mL, or HBS-P was supplemented with 500 mM NaCl (650 mM NaCl, final concentration). Analytes were also reconstituted in the corresponding buffer. All experiments were performed at 25° C. 1/150 dilutions of phosphoric acid were used to regenerate IGFBP3-Fc surfaces and a sequence of 3 M MgCl₂ followed by 5 M GuCl was used to regenerate surfaces immobilized with growth factor. Dissociation constants reported below used immobilized binding protein unless noted. Differences between binding constants may be expected between growth factor immobilization and chimera immobilization.
# nrgbx [2] = target: T1, nrgbx; experiment: cell-based or functional assay
# IGF-1 [3] = target: T3, IGF-1 (UniProt P05019 49-118); experiment: cell-based or functional assay
# IGF-1 [4] = target: T3, IGF-1; experiment: biotinylated IGF-1 ELISA on Fc-captured chimera, 4 C PBS control (the reference); experiment 4-81
# Protocol: (§2) Plates were coated with goat anti-human Fc antibody, blocked and then incubated with chimera as in the Fc ELISA. Biotinylated IGF-1 (GroPep) or VEGF-Biotin (R&D Systems VEGF biotinylated with sulfo-NHS-LC-biotin as per instructions (Pierce) was added for 2 hours followed by streptavidin-HRP (Jackson Immunoresearch) for 30 minutes. Chromogenic development with tetramethyl benzidine was performed as described above.
# (§3) To test the stability of the present chimeras, some purified chimeras (see, Table 4) were incubated with PBS or a conditioned medium from the MCF-7 cell line overnight at 37° C. and PBS overnight at 4° C. The IGF-1 binding and VEGF binding were measured using the biotinylated IGF-1 and VEGF.
# IGF-1 [5] = target: T3, IGF-1; experiment: biotinylated IGF-1 ELISA on Fc-captured chimera, after overnight in PBS at 37 C, against the 4 C PBS control; experiment 4-81
# Protocol: as §2, §3
# IGF-1 [6] = target: T3, IGF-1; experiment: biotinylated IGF-1 ELISA on Fc-captured chimera, after overnight in MCF-7 conditioned medium at 37 C, against the 4 C PBS control; experiment 4-81
# Protocol: as §2, §3
# IGF-1 [7] = target: T3, IGF-1; experiment: Biacore SPR; experiment 4-79
# Protocol: as §1
# bFGF [8] = target: T2, bFGF; experiment: binding test, fragment as ligand, growth factor in 0.65 M NaCl
# VEGF-B = target: B3; experiment: as above
# IGF-2 = IGF-2 (UniProt P01344 25-91); experiment: as above
# IGF-1 [9] = target: T3, IGF-1; experiment: as above
# PDGF AB = target: T4, PDGF AB (UniProt P04085 87-211; P01127 82-190, limits assumed); experiment: as above
# T4 construct: Heterodimer by its name
# wild-type IGFBP3 = target: T5, wild-type IGFBP3 (human, UniProt P17936 28-291); experiment: summary of the foregoing examples; method not given
# T5 construct: also called human IGFBP3
# IGF-1 [10] = target: T3, IGF-1; experiment: biotinylated IGF-1 ELISA on Fc-captured chimera, 4 C PBS control (the reference); experiment 3-192
# Protocol: as §2, §3
# IGF-1 [11] = target: T3, IGF-1; experiment: biotinylated IGF-1 ELISA on Fc-captured chimera, after overnight in MCF-7 conditioned medium at 37 C, against the 4 C PBS control; experiment 3-192
# Protocol: as §2, §3
# IGF-1 [12] = target: T3, IGF-1; experiment: biotinylated IGF-1 ELISA on Fc-captured chimera, after overnight in PBS at 37 C, against the 4 C PBS control; experiment 3-192
# Protocol: as §2, §3
# nrgbx [13] = target: T1, nrgbx; experiment: binding test, fragment as ligand, growth factor in 0.65 M NaCl
# T2 sequence (P09038 143-288 limits assumed): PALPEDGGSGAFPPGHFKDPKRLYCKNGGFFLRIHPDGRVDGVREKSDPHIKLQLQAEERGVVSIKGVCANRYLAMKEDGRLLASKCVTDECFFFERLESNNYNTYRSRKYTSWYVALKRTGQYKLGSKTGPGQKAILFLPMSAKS
# T3 sequence (P05019 49-118 limits assumed): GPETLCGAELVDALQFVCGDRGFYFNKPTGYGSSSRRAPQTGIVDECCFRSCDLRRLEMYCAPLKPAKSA
# T4 sequence (P01127 82-190 limits assumed, chain 2 of 2, other chains not shown): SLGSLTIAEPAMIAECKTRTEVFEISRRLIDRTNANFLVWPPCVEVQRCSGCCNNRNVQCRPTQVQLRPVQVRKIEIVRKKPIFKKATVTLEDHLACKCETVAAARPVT
# IGF-2, sequence (P01344 25-91 limits assumed): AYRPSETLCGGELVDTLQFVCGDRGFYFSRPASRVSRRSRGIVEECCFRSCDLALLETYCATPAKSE
binder,measurement,setting,value
B1,Kd,bFGF [1],3.44 nM
same,IC50 in inhibiting neuregulin-induced proliferation,nrgbx [2],80 nM
same,EC50 in inhibiting IGF-1 induced proliferation of hep3B cells,IGF-1 [3],21 nM
same,IGF-1 binding remaining over controls,IGF-1 [4],100%
same,IGF-1 binding remaining over controls,IGF-1 [5],84%
same,IGF-1 binding remaining over controls,IGF-1 [6],49%
same,Kd,IGF-1 [7],0.371 nM
B2,binding result,bFGF [8],binds
same,binding result,VEGF-B,binds
same,binding result,IGF-2,binds
same,binding result,IGF-1 [9],binds
same,binding result,PDGF AB,binds
B3,binding result,wild-type IGFBP3,binds
B4,binding result,wild-type IGFBP3,binds
B5,IGF-1 binding remaining over controls,IGF-1 [10],100%
same,IGF-1 binding remaining over controls,IGF-1 [11],82%
same,IGF-1 binding remaining over controls,IGF-1 [12],167%
B6,Kd,bFGF [1],4.32 nM
same,IGF-1 binding remaining over controls,IGF-1 [4],100%
same,IGF-1 binding remaining over controls,IGF-1 [5],72%
same,IGF-1 binding remaining over controls,IGF-1 [6],43%
same,Kd,IGF-1 [7],0.32 nM
B7,binding result,nrgbx [13],no binding
same,binding result,bFGF [8],no binding
same,binding result,VEGF-B,no binding
same,binding result,IGF-2,binds
same,binding result,IGF-1 [9],binds
same,binding result,PDGF AB,no binding
B8,binding result,nrgbx [13],no binding
same,binding result,bFGF [8],no binding
same,binding result,VEGF-B,no binding
same,binding result,PDGF AB,no binding
